In the DeepSol protein solubility set:

Assay: soluble on expression in E. coli; label from the status in PepcDB or PDB records

Sequence	soluble on expression in E. coli
MSLRVMIVDDHGTNRELCRFILAHIASHIDTFEDGQQAIDAMREMEILPDVILLDVMMPIKDGFVTAKEIRQAFVKHHIPIIFLTVLDDRDSFEKCLALGDDFILKPVERSVLIAKVQAHYRIVKMHNEGHHHHHH	not soluble
MSLRVMIVDDHGTNRELCRFILAHIASHIDTFEDGQQAIDAMREMEILPDVILLDVMMPIKDGFVTAKEIRQAFVKHHIPIIFLTVLDDRDSFEKCLALGDDFILKPVERSVLIAKVQAHYRIVKMHNEVMEQRDELRHFREQVQYDYAISESIFTNLMEEMCHQVEHIFGIHYISTPSTIFNGDLIVVANRPHGGVYVMIADATGHGLPAAISTIPATRTFFSTAQKGLSLGEMVIELNHSLERFLPVGMMLAASVFEVRANGFEISWWGGGLPEAYLLDHHGNIVSRLISNHMPLGVLPSNEFEADVQHFKLEPNQKLVCYTDGIIEAMNEQGEYFGQERLEHVLTKAYSEALIPTLYDAVKKFSNRGKGDDLSILTMTFPITNSNSSDKALPKVVLSCIPLQTELHFPADVLRKISLMNEVRRFLTGIVSGGEDLDLLCSVLSELFANAIEHGLLELDSSLKETPDGFFEFYQLRDKRLKTLPEYHWLILKVNYQPDKQRIEIDLEHSGKGFDCQALKDASNQKSYGRGILLATQLCESLEYSNQGRRVTAVYSFARKDTLHYSLPSEGHHHHHH	soluble
MSLSAGDSMPGPKSTFRVGVWEDRNKKCRRTMEDTHAFLYNFVQTPALNDASAKDKPEGDDLVTSDMVESDNGYFAIFDGHAGTFAADWCGKKLHIILEDIIRKNPNALIPEVLDQAFTAADAQLEKLPLKNSGCTAAVAVLRWEDRASNDRSAIKPVKPEEPIEMDKANDGSSNEEATKATNSKGKGSGRQRVLYTANVGDARIILCRGGKALRLSYDHKGSDEVEGKRIAAAGGLILNNRVNGVLAVTRALGDAYMKKLVTGHPYTTETVIQPDSDEFIIIACDGIWDVCSDQEAVDLVRNVNDPISASKQLVDYALNRFSTDNLSCMVVRLDQNKEAAVEEGHHHHHH	soluble
MSLSANDVNKDHLQTSIKQCENNGNGQEEGLKNPSKSGTTFYVPWEGSENFLSCQSKNGTPIMMVAYQTVLRDPLPGEEENVHLAARLLAGTVVKPGEVFSQNNKIGPYVIARGFKKGPTYIGTKLTTTIGGGVCKMASTLYNVAILSNLPVVERHAHSMPVPYVPYGQDATVSYGNKDLKFKNDTSSPIMIWAQGVDNILYVAFYSSTKPPEVEWHHEMLKLIKADKVYKMSSTLPKGREKLLMEGMDGAIVKSWVTVKNPDGTVIKRDLRKSYYNPMPHVYEKGKEGHHHHHH	soluble
MSLSDAFLSSIKNRRTIYALDKQLPVSQEKIVELVKEAVSHSPSAFNSQSSRVVVLFGAEHEQFWNIAKDELKKIVPADAFAATETKLNSFAAGAGTVLFFEDQTVVRQLQEQFALYADNFPVWSEQASGMAQFAVWTALAEHKVGASLQHYNPLVDAQTHKTWNLPESWKLRAQMPFGAIAAPAGEKAFIAESERFKVFGNEGGSHHHHHH	soluble
MSLSDPKFIHLRIHSDFSMVDGLSKVPPLVKKVAAMGMPAMALTDFTNLCGLVKFYSTAHNCGVKPIIGADFTLQSEEFGDELTKLTLLAKNNVGYKNLTLLISKAYLRGHVQHQPVIDKAWLVEHAEGLIVLSGGKSGEVGRALLKGNQQQVERCIEFYQTHFADHFYLELIRTGRADEESYLHFALDVAEQYDLPVVATNEVVFITEGHHHHHH	not soluble
MSLSEASFLYLNDIHADPLYSPIIPSKHDCRGDHKKTIDPHKYGQYECDSPMELFESLVSNAKQTNEKPAFILLGGDLIAHGLNTDSKMLKQSFKNVTAPLEAAFPNTSIYITLGNNDFASDYGSFDTDADNFKTAYKVFGKWMNDEQSKTFLKGGYYYADFPEVNLRFLFLNSVMYAAKRDQTQHAEDPYDQFAWIESSYDDAVQKGFKVSVALHIPPGVYYYKNKLGWNEDYITKFSKIMKKCDFSFILSGHSHTDMFLPLYSPTADKDSVLYSLSAPSVSPVNYNNPGYRVFELSNGIVKDYTQYYADLLMNPSVLKWQVEYKFSDAYSASNVTRETINNAAEWVRTTGEGQWRYRERIYTRADEHNAFYYCALKALLPDDIVDCENKLNIDKLSAQPYYKEGHHHHHH	soluble
MSLSEKAKKPQKLKARLPRGFVDRSAADIHATNEMVDKIRRVYELYGFDPIETPLFEYTDALGKFLPDSDRPNEGVFSLQDDDDQWMSLRYDLTAPLARHVAENFNEIQLPYRTYRAGYVFRNEKPGPGRFRQFMQFDADTVGAAGVQADAEMCMMMADTMEALGIARGDYVIRVNNRKVLDGVMEAIGLGGEDNAGRRLNVLRAIDKLDKFGPEGVKLLLGPGRKDESGDFTKGAGLGDEQIEKVLFFVGIKDYAASADDLAKLVAGTSKGEEGVDELNTIGALVSGAGYDATRIKIDPSVVRGLEYYTGPVYEAELTFDVTNEKGEKVVFGSVGGGGRYDGLVSRFMGQPVPATGFSIGVSRLMTALKNLGKLGQVKPLAPVLITVMDGDVESMGRYQRFTQALRAEGIRAEMYQGNWKKFGNQLKYADRLGSPIAIIQGGDERAEGVVQIKDLIEGKRLSGEIEDNASWREARVAQVSEGHHHHHH	soluble
MSLSEKKVHLRLRKELSVPIAVVENESLAQLSYEEESQASLMDISMEQQQLRLHSHFDNSKVFTENNRYIVKTLQTDYSSGFSNDDELNGYIDMQIGYGLVNDHKKVYIWNIHSTQKDTPYITVPFRSDDNDEIAVAPRCILTFPATMDESPLALNPNDQDETGGLIIIKGSKAIYYEDINSINNLNFKLSEKFSHELELPINSSGGEKCDLMLNCEPAGIVLSTNMGRIFFITIRNSMGKPQLKLGKLLNKPFKLGIWSKIFNTNSSVVSLRNGPILGKGTRLVYITTNKGIFQTWQLSATNSHPTKLIDVNIYEAILESLQDLYPFAHGTLKIWDSHPLQDESSQLFLSSIYDSSCNETYYILSTIIFDSSSNSFTIFSTYRLNTFMESITDTKFKPKIFIPQMENANDTNEVTSILVMFPNAVVITQVNSKLDSSYSMRRKWEDIVSLRNDIDIIGSGYDSKSLYVLTKQMGVLQFFVKENEETNSKPEVGFVKSHVDQAVYFSKINANPIDFNLPPEISLDQESIEHDLKLTSEEIFHSNGKYIPPMLNTLGQHLSVRKEFFQNFLTFVAKNFNYKISPELKLDLIEKFEILNCCIKFNSIIRQSDVLNDIWEKTLSNYNLTQNEHLTTKTVVINSPDVFPVIFKQFLNHVVFVLFPSQNQNFKLNVTNLINLCFYDGILEEGEKTIRYELLELDPMEVDTSKLPWFINFDYLNCINQCFFDFTFACEEEGSLDSYKEGLLKIVKILYYQFNQFKIWINTQPVKSVNANDNFININNLYDDNHLDWNHVLCKVNLKEQCIQIAEFYKDLSGLVQTLQTLDQNDSTTVSLYETFFNEFPKEFSFTLFEYLIKHKKLNDLIFRFPQQHDVLIQFFQESAPKYGHVAWIQQILDGSYADAMNTLKNITVDDSKKGESLSECELHLNVAKLSSLLVEKDNLDINTLRKIQYNLDTIDAEKNISNKLKKGEVQICKRFKNGSIREVFNILVEELKSTTVVNLSDLVELYSMLDDEESLFIPLRLLSVDGNLLNFEVKKFLNALVWRRIVLLNASNEGDKLLQHIVKRVFDEELPKNNDFPLPSVDLLCDKSLLTPEYISETYGRFPIDQNAIREEIYEEISQVETLNSDNSLEIKLHSTIGSVAKEKNYTINYETNTVEYEGHHHHHH	soluble
MSLSELVRKLSGTAPNPAFPRGAVDTQMHMYLPGYPALPGGPGLPPGALPGPEDYRRLMQWLGIDRVIITQGNAHQRDNGNTLACVAEMGEAAHAVVIIDATTTEKDMEKLTAAGTVGARIMDLPGGAVNLSELDAVDERAHAADWMVAVQFDGNGLLDHLPRLQKIRSRWVFDHHGKFFKGIRTDGPEMAALLKLIDRGNLWFKFAGVYESSRKSWPYADVAAFSRVIAAHAPERIVWGTNWPHNSVRETAAYPDDARLAELTLGWLPDEAARHRALVENPEALFKLSPVKEGHHHHHH	soluble
MSLSENEQFSQMEAKARARMKERGVEVSDIAELVFFLQKKYHPDLTIDECTLNVNRVLAKREVQNAILTGIELDVLAEQKKLSEPLQTMLEIDESLYGVDEVLAFSIVNIYGSIGFTNYGYIDKEKPGILKRLNDKSTGECHTFLDDIVGAISAAASSRLAHRARHTEEGGSHHHHHH	soluble
MSLSEVDIAKADPAAASHPLLLNGDATVAQKNPGSVAENNLCSQYEEKVRPCIDLIDSLRALGVEQDLALPAIAVIGDQSSGKSSVLEALSGVALPRGSGIVTRCPLVLKLKKLVNEDKWRGKVSYQDYEIEISDASEVEKEINKAQNAIAGEGMGISHELITLEISSRDVPDLTLIDLPGITRVAVGNQPADIGYKIKTLIKKYIQRQETISLVVVPSNVDIATTEALSMAQEVDPEGDRTIGILTKPDLVDKGTEDKVVDVVRNLVFHLKKGYMIVKCRGQQEIQDQLSLSEALQREKIFFENHPYFRDLLEEGKATVPCLAEKLTSELITHICKSLPLLENQIKETHQRITEELQKYGEGHHHHHH	not soluble
MSLSFLKHVQDCNTHDLSNFVRFVIEGRRVGWVRKALAQRLKAHGRVFDVTRDAVLLSASLRTPQSRTRAVADVVDRLADEGVVPAPRGELYRVNQSWGEPTLMLLDRAVVPTFGVRAYGVHLNGYVGAGADLHLWIGRRSPDKSVAPGKLDNMVAGGQPADLSLRQNLIKECAEEADLPEALARQAIPVGAITYCMESPAGIKPDTLFLYDLALPEDFRPHNTDGEMADFMLWPAAKVVEAVRTTEAFKFNVNLTVIDFAIRHGLIDPDNEPDYQEILAGLRGRPRERAASEGHHHHHH	soluble
MSLSFSMKIKNIPYYVATRVVKRIQSWLGLNTLGARAIVTNAEGHVLLVKHTYQPHWYLPGGGVKKGESTKAAVIRELHEEVGLVVAEQDVILFGIYHHKYLGVNDYPVIYIVKNFTSHVTHSGEIEQIGWFSLDALPEMVSPGTKRRLGEYFDNNPISEKWEGHHHHHH	soluble
MSLSHKSKKLLLVDDDQTVLKLMTEVLTDFGHCVTSVPSARHALNHFTSAGQAFDLLITDICMPGMNGVELIKAVRAHNGTLPIIAISGFSEPEDQNEIAHYDARMLTKPVDFQTLKQTIDALEGHHHHHH	not soluble
MSLSIFEHFQARYEAAKDEELSIQDFLALCKENKSAYANAAERLLLAIGEPEMIDTSKHSRLSRIFSNRVIARYKTFEDFYGMEEAIEQIVAYLKHAAQGLEERKQILYLLGPVGGGKSSLAEKLKALMQQMPIYVLSANGQRSPVNDHPFCLFDVNEDGELLKQEYGIDRRYLRSIMSPWAAKRLHEFGGDITKFKVVKVRPSILDQIAVAKTEPGDENNQDISSLVGKVDIRKLEHFSQDDPDAYSYSGALCRANQGLMEFVEMFKAPIKVLHPLLTATQEGNYNGTEGLSALPFDGMILAHSNESEWQTFRNNKNNEAFLDRVYIVKVPYCLRVSEEVKIYQKLLDHSELSKAPCAPSTLDLLAQFSVLSRLKVPENSSLFSKMRVYDGETLKDTDPKAKSYQEYRDYAGVDEGMSGLSTRFAFKILSRVFNFDHSEVAANPVHLFYVIEQQVEREGHHHHHH	not soluble
MSLSKKRAGAMKNYGAGDQFKATKALTFTILHNDMPTYPMKRDWLFWKEVTERTGVTLKPTSVPASDYDKKRSLLIGAGDAPLLIPKTYPGQETAFVSSGAILPVSEYVRLMPNFRAKVEKWGLEGDLDSIRQADGNYYVLPGLHEKVKSGYSLSFRTDVLKKHGLDLPTTWDQVYDVLKALKAAYPDVYPFSDRWGQPTPGGALLNYLGPAFGTKAGWSYANTAWDTKARKYVFTGATDEYRQMLEYLRKLVAEKLMDPESFTQSDDDAVRKLLSGKSFVISANPQELVQNYRYNLGKQVKGATIEMIPVPIGPTGEVIVGSRLENGLMVAGRAAEGDSFVAMMQFVDWLWYSDGGQEFAKYGVEGVTYTSSGAGRYKVADGISYMGSDPSAPKDLQKDYGFTNGEFAYGGSWALVSSSFSPDEKAFQDAMAGRKLLPVDPAHPLKADEQEQATLWDTPLKDHVTQNTLKFALGKRPMSEWDAYLAELKAKNMQRYIDLHNTAYERFKKEHEGHHHHHH	soluble
